Laboratory results: patent publication US20230203155A1 (ALMAC DISCOVERY, published 2023)

What was measured:
[1] = target: T1, mouse ROR1-Fc fusion protein (mouse); experiment: ELISA
T1 construct: Whole entry 'mouse ROR1-Fc (CHO)'; also called mROR1

human serum albumin = target: T2, human serum albumin (human, UniProt P02768 25-609); experiment: BLI, HSA on sensor
T2 construct: also called HSA
Protocol: (§1) Binding kinetics were determined using a SPR (as previously described) or using Biolayer interferometry (K2 Octet instrument/Pall ForteBio). […] VNARs and VNAR-Fc molecules were tested at various concentrations and the Ka (M−1s−1), Kd (s−1) and KD (nM) values were determined using the Octet data analysis HT software (Pall ForteBio).

[2] = target: T3, human ROR1-hFc fusion protein (extracellular domain) (human); experiment: BLI, ROR1-hFc on sensor
T3 construct: Whole entry 'human ROR1-Fc (CHO)'; also called hROR1; huROR1-Fc
Protocol: as §1

[3] = target: T3, human ROR1-hFc fusion protein …; experiment: BLI, ROR1-hFc on sensor, 200 nM HSA present
Protocol: as §1

[4] = target: T4, B1 VNAR with C-terminal His6Myc tag; experiment: competition ELISA: B1 pre-incubated with peptide, residual binding to coated huROR1-Fc
T4 construct: VNAR, E. coli; also called B1 his myc; B1HisMyc monomer
Protocol: (§2) In brief, ELISA method as follows. Wells coated with 100 ng antigen and incubated, covered, at room temperature for 2 hr. Plates washed 3×400 ul per well with PBST (PBS+0.05% Tween 20 (v/v)), then blocked with 4% skimmed milk powder (w/v) in PBST for 1 hour at 37° C. Plates washed as before plus additional wash in PBS alone. Binding proteins were diluted in 4% milk PBST and incubated overnight at 4° C. Plates washed 3× with PBST, 3×PBS and binding detected using appropriate secondary detection antibody in 4% milk PBST, room temperature 1 hour. […] Rabbit anti-Mouse IgG H&L, HRP (Abcam #ab97046) [0360] Mouse anti-polyHis, HRP (Sigma #A7058)
(§3) Competition assays were conducted as described in the methods with all four peptides reconstituted in PBS.

D3 his myc = target: T5, D3 his myc; experiment: competition ELISA: D3 pre-incubated with peptide, residual binding to coated huROR1-Fc
T5 construct: VNAR; made in E. coli and in HEK293 (expression system under assay); also called D3 WT

P3A1 his myc = target: T6, P3A1 his myc; experiment: competition ELISA: P3A1 pre-incubated with peptide, residual binding to coated huROR1-Fc
T6 construct: VNAR; also called P3A1 6xHis myc
Protocol: as §2, §3
T6 VNAR: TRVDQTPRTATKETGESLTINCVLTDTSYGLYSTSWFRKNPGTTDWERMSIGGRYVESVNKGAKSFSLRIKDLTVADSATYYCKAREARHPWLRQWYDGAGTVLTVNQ

D3-[G4S]5-D3 his myc = target: T7, D3-[G4S]5-D3 his myc; experiment: competition ELISA: D3-D3 pre-incubated with peptide, residual binding to coated huROR1-Fc
T7 construct: VNAR homodimer by genetic fusion; also called D3-D3; D3 dimer

[5] = target: T8, human ROR1 on the surface of ROR1hi human cancer cell lines (human, UniProt Q01973 30-937); experiment: flow cytometry, A549 (ROR1hi) cells, 4°C
T8 construct: whole, on cells; Cell line is named under assay; also called cell surface ROR1

[6] = target: T3, human ROR1-hFc fusion protein …; experiment: SPR, ROR1-hFc on chip
Protocol: (§4) Binding kinetics were determined using a Pioneer Surface Plasmon Resonance (SPR) instrument (SensiQ/Pall ForteBio). […] VNARs and VNAR-Fc molecules were tested at various concentrations and the Ka (M⁻¹s⁻¹), Kd (s⁻¹) and KD (nM) values were determined using QDat software (SensiQ/Pall ForteBio).
(§5) The ability of the VNAR-MMAE conjugates and VNAR-fluorescein conjugates to bind to human ROR1 ECD was determined by SPR using the procedures described above.

[7] = target: T9, human ROR2-hFc fusion protein (extracellular domain) (human); experiment: SPR, ROR2-hFc on chip
T9 construct: Whole entry 'human ROR2-Fc (CHO)'; also called hROR2
Protocol: as §4, §5

[8] = target: T3, human ROR1-hFc fusion protein …; experiment: SPR, ROR1-hFc on chip; remark: listed apart in the source
Protocol: as §4

[9] = target: T9, human ROR2-hFc fusion protein …; experiment: SPR, ROR2-hFc on chip; remark: listed apart in the source
Protocol: as §4, §1

[10] = target: T10, rat ROR1-Fc fusion protein (rat); experiment: SPR, rat ROR1 on chip
T10 construct: Whole entry 'rat ROR1-Fc (CHO)'; also called rROR1
Protocol: as §4

[11] = target: T1, mouse ROR1-Fc fusion protein; experiment: SPR, mouse ROR1 on chip
Protocol: as §4

[12] = target: T3, human ROR1-hFc fusion protein …; experiment: SPR, ROR1-hFc on chip; remark: listed apart in the source
Protocol: as §4

[13] = target: T9, human ROR2-hFc fusion protein …; experiment: SPR, ROR2-hFc on chip; remark: listed apart in the source
[14] = target: T8, human ROR1 on the surface of ROR1hi …; experiment: flow cytometry on A549 (ROR1hi) cells, PE-anti Myc tag Ab
Protocol: FIG. 9: Cell surface binding of VNAR (His₆Myc tag) molecules to A549 (ROR1^hi) lung cancer cells by flow cytometry.
Adherent human cancer cells were detached from tissue culture flasks by incubating with 0.1% EDTA/PBS solution at 37° C. for −10 minutes or until cells detached easily. Cells were re-suspended in 5 ml ice-cold PBS/2% FCS in 15 ml tubes and centrifuged at 1500 rpm for 5 mins at 4° C. Supernatant was removed and the cell pellet re-suspended in 1-2 ml of PBS/2% FCS. A cell count was performed using a Z1 Coulter Particle Counter (Beckman Coulter) and 5×10\hat{ }5 cells were aliquoted per test sample. Cells were incubated with 100 μl of either VNAR (His₆Myc tagged), VNAR-Fc molecules or ROR1 mAb and IgG controls for 1 hour on ice. Excess VNAR, VNAR-Fc or mAb was removed by adding 5 ml of ice-cold PBS/2% FCS, followed by centrifugation at 1500 rpm for 5 mins at 4° C. The supernatant was removed and a second wash performed by re-suspending the cell pellet in 1 ml of ice-cold PBS/2% FCS and adding a further 4 ml of ice-cold PBS/2% FCS. Samples were again centrifuged at 1500 rpm for 5 min at 4° C. Supernatant was removed and excess liquid removed by blotting the tubes on tissue paper. […] Cells were incubated with chosen secondary antibody for 30 min on ice. Cells were washed to remove excess antibody as described earlier. […]

[15] = target: T9, human ROR2-hFc fusion protein …; experiment: monoclonal phage ELISA on coated ROR2-Fc

T9 sequence (chain, as listed by the source limits assumed): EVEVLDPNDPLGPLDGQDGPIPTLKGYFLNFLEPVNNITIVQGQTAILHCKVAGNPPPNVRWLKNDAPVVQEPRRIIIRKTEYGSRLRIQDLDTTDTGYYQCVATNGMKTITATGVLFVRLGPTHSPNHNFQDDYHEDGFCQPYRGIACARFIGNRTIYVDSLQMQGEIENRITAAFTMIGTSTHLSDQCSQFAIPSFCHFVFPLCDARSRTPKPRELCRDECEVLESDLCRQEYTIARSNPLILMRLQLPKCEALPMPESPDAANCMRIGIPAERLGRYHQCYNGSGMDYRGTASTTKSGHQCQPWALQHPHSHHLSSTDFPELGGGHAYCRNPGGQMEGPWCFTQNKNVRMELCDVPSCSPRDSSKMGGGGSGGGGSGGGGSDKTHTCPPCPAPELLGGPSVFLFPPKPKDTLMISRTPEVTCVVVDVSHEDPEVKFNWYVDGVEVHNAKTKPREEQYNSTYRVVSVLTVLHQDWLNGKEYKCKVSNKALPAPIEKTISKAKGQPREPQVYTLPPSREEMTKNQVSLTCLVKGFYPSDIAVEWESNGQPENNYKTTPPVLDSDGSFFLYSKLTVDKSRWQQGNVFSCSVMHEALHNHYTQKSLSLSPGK
T3 sequence (chain, as listed by the source limits assumed): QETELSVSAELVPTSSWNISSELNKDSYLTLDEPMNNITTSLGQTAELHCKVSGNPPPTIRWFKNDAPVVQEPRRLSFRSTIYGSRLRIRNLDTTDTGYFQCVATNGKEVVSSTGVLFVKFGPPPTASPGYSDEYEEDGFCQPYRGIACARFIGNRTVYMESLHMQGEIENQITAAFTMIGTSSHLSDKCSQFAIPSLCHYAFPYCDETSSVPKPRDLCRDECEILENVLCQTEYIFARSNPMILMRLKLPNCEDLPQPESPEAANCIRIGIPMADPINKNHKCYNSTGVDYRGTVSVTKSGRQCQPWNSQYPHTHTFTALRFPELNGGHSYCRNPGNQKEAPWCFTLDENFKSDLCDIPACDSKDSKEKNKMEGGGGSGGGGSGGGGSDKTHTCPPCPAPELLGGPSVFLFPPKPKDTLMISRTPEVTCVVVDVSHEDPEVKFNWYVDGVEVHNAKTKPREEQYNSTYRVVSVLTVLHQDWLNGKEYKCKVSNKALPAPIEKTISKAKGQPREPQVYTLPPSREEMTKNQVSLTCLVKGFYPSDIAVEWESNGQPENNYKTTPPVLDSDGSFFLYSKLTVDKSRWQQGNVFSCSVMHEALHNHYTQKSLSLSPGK
T1 sequence (chain, as listed by the source limits assumed): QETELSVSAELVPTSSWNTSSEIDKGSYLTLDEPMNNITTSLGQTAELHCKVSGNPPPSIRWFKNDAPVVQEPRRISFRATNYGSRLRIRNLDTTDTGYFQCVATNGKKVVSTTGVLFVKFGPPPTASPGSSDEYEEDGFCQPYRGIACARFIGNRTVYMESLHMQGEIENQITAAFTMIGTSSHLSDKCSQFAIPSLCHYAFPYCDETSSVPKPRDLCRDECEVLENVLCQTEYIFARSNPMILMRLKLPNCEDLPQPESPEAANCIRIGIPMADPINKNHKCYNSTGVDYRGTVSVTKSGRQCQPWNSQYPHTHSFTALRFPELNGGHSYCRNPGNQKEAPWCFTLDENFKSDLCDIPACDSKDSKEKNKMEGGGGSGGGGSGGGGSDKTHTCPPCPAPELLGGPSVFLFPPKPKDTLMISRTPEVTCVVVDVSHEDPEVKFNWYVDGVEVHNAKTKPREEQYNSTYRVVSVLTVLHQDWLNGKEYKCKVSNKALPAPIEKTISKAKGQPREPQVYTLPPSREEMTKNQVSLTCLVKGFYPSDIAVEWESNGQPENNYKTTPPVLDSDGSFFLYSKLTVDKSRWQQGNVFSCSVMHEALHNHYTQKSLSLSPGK
T10 sequence (chain, as listed by the source limits assumed): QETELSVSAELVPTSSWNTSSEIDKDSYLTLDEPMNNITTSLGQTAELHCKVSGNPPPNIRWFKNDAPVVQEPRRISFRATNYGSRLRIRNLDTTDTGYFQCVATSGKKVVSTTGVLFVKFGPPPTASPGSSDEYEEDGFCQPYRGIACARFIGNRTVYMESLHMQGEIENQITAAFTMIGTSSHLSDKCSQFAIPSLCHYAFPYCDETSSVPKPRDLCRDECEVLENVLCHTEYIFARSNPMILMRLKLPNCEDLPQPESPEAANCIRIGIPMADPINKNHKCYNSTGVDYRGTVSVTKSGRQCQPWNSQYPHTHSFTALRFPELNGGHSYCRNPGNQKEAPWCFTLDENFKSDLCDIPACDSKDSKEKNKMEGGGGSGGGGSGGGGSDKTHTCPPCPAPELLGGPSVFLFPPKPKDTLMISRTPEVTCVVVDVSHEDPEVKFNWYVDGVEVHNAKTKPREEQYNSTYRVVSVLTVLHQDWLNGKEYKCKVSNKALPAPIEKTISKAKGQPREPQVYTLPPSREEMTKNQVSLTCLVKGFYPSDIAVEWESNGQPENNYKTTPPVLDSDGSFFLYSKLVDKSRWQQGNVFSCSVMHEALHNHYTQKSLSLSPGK

B1: P3A1 Wobbe-G4S-BA11-Wobbe-G4S-P3A1 CysHisMyc (VNAR)
chain: TRVDQTPRTATKETGESLTINCVLTDTSYGLYSTSWFRKNPGTTDWERMSIGGRYVESVNKGAKSFSLRIKDLTVADSATYYCKAREARHPWLRQWYDGAGTVLTVNPGVQPSPGGGGSTRVDQSPSSLSASVGDRVTITCVLTDTSYPLYSTYWYRKNPGSSNKEQISISGRYSESVNKGTKSFTLTISSLQPEDSATYYCRAMSTNIWTGDGAGTKVEIKPGVQPSPGGGGSTRVDQTPRTATKETGESLTINCVLTDTSYGLYSTSWFRKNPGTTDWERMSIGGRYVESVNKGAKSFSLRIKDLTVADSATYYCKAREARHPWLRQWYDGAGTVLTVNQACKAHHHHHHGAEFEQKLISEEDL
notes: VNAR fusion; also called P3A1-BA11-P3A1
[1]
  binding result: binds
Human serum albumin
  Kd: 5.58 nM
  koff: 0.00069 s⁻¹
  kon: 124000 M⁻¹ s⁻¹
[2]
  Kd: 2.54 nM
  koff: 0.00044 s⁻¹
  kon: 173000 M⁻¹ s⁻¹
[3]
  Kd: 1.6 nM

## QCVATNGKEVVSSTGVLFVKFGPPPTASPGYSDEYE (linear ROR1 ECD peptide) [Peptide 4]
[4]
  binding result: no binding (tested: 10 uM)
D3 his myc
  binding result: no binding
P3A1 his myc
  binding result: no binding (tested: about 500 uM as the axis is labelled)
D3-[G4S]5-D3 his myc
  binding result: no binding

B2: B1G1-B1G1 HisMyc (VNAR)
chain: TRVDQSPSSLSASVGDRVTITCVLTGANYGLASTYWYRKNPGSSNKEQISISGRYSESVNKGTKSFTLTISSLQPEDSATYYCRAYPWGAGAPWLVQWYDGAGTKVEIKGGGGSGGGGSGGGGSGGGGSGGGGSTRVDQSPSSLSASVGDRVTITCVLTGANYGLASTYWYRKNPGSSNKEQISISGRYSESVNKGTKSFTLTISSLQPEDSATYYCRAYPWGAGAPWLVQWYDGAGTKVEIKQASGAHHHHHHGAEFEQKLISEEDL
notes: VNAR fusion
[5]
  Median YL1-PE: 1470

B3: P3A1-P3A1-S-mal-vcMMAE (VNAR)
chain: TRVDQTPRTATKETGESLTINCVLTDTSYGLYSTSWFRKNPGTTDWERMSIGGRYVESVNKGAKSFSLRIKDLTVADSATYYCKAREARHPWLRQWYDGAGTVLTVNGGGGSGGGGSGGGGSGGGGSGGGGSTRVDQTPRTATKETGESLTINCVLTDTSYGLYSTSWFRKNPGTTDWERMSIGGRYVESVNKGAKSFSLRIKDLTVADSATYYCKAREARHPWLRQWYDGAGTVLTVNQASGAHHHHHHGAEFEQKLISEEDL
modifications: C-terminal thiol conjugated to MC vc PAB MMAE
[6]
  Kd: 0.59 nM
  koff: 0.0026 s⁻¹
  kon: 4.96e+06 M⁻¹ s⁻¹
[7]
  binding result: no binding

B4: P3A1-P3A1-Ox-MMAE (VNAR)
chain: B3 chain
modifications: C-terminal aminoxy oxime-linked to benzaldehyde PEG4 MMAE
[6]
  Kd: 0.78 nM
  koff: 0.0032 s⁻¹
  kon: 4.2e+06 M⁻¹ s⁻¹
[7]
  binding result: no binding

B5: P3A1-P3A1-Ox-vcMMAE (VNAR)
chain: B3 chain
modifications: C-terminal aminoxy oxime-linked to benzaldehyde PEG2 vc PAB MMAE
[6]
  Kd: 1.43 nM
  koff: 0.00277 s⁻¹
  kon: 2.07e+06 M⁻¹ s⁻¹
[7]
  binding result: no binding

B6: CPF7 his myc (VNAR)
VNAR: TRVDQTPRTATKETGESLTINCVVTGAKYGLFATYWYRKNPGSSNQERISISGRYVESVNKRTMSFSLRIKDLTVADSATYYCKAVFMPQHWHPAAHWYDGAGTVLTVNQ
notes: VNAR
[8]
  Kd: 13.6 nM
  koff: 0.0296 s⁻¹
  kon: 2.33e+06 M⁻¹ s⁻¹
[9]
  binding result: no binding
[10]
  Kd: 68.6 nM
  koff: 0.0366 s⁻¹
  kon: 772000 M⁻¹ s⁻¹
[11]
  Kd: 19.1 nM
  koff: 0.032 s⁻¹
  kon: 2.26e+06 M⁻¹ s⁻¹

B7: BA11 Wobbe-G4S-P3A1-Wobbe-G4S-P3A1-CysHisMyc (VNAR)
chain: TRVDQSPSSLSASVGDRVTITCVLTDTSYPLYSTYWYRKNPGSSNKEQISISGRYSESVNKGTKSFTLTISSLQPEDSATYYCRAMSTNIWTGDGAGTKVEIKPGVQPSPGGGGSTRVDQTPRTATKETGESLTINCVLTDTSYGLYSTSWFRKNPGTTDWERMSIGGRYVESVNKGAKSFSLRIKDLTVADSATYYCKAREARHPWLRQWYDGAGTVLTVNPGVQPSPGGGGSTRVDQTPRTATKETGESLTINCVLTDTSYGLYSTSWFRKNPGTTDWERMSIGGRYVESVNKGAKSFSLRIKDLTVADSATYYCKAREARHPWLRQWYDGAGTVLTVNQACKAHHHHHHGAEFEQKLISEEDL
notes: VNAR fusion; also called BA11-P3A1-P3A1
[1]
  binding result: binds
Human serum albumin
  Kd: 5.08 nM
  koff: 0.000566 s⁻¹
  kon: 111000 M⁻¹ s⁻¹
[2]
  Kd: 3.47 nM
  koff: 0.000447 s⁻¹
  kon: 129000 M⁻¹ s⁻¹
[3]
  Kd: 2.53 nM

B8: Peptide 2 (peptide)
peptide: RSTIYGSRLRINLDTTDTGYFQ
notes: linear ROR1 ECD peptide; insoluble in PBS
[4]
  binding result: no binding (tested: 10 uM)
D3 his myc
  binding result: no binding
P3A1 his myc
  binding result: no binding (tested: about 500 uM as the axis is labelled)
D3-[G4S]5-D3 his myc
  binding result: no binding

B9: P3A1 dimer, no tag (VNAR)
chain: TRVDQTPRTATKETGESLTINCVLTDTSYGLYSTSWFRKNPGTTDWERMSIGGRYVESVNKGAKSFSLRIKDLTVADSATYYCKAREARHPWLRQWYDGAGTVLTVNGGGGSGGGGSGGGGSGGGGSGGGGSTRVDQTPRTATKETGESLTINCVLTDTSYGLYSTSWFRKNPGTTDWERMSIGGRYVESVNKGAKSFSLRIKDLTVADSATYYCKAREARHPWLRQWYDGAGTVLTVN
[12]
  Kd: 0.36 nM
  koff: 0.000598 s⁻¹
  kon: 1.67e+06 M⁻¹ s⁻¹
[13]
  binding result: no binding

B10: P3A1 his (VNAR)
VNAR: T6 VNAR
notes: VNAR; also called P3A1 6xHis
[12]
  Kd: 7.8 nM
  koff: 0.0206 s⁻¹
  kon: 2.92e+06 M⁻¹ s⁻¹
[13]
  binding result: no binding

B11: E7 his myc (VNAR)
VNAR: TRVDQTPRTATKETGESLTINCVVTGAKYGLAATYWYRKNPGSSNQERISISGRYVESVNKRTMSFSLRIKDLTVADSATYYCKAYPWAMWGQWYDGAGTVLTVNQ
notes: VNAR
[8]
  Kd: 11.1 nM
  koff: 0.0118 s⁻¹
  kon: 1.11e+06 M⁻¹ s⁻¹
[9]
  binding result: no binding
[11]
  Kd: 1.4 nM
  koff: 0.002 s⁻¹
  kon: 1.41e+06 M⁻¹ s⁻¹
[14]
  binding result: binds

B12: P3A1 (VNAR)
VNAR: TRVDQTPRTATKETGESLTINCVLTDTSYGLYSTSWFRKNPGTTDWERMSIGGRYVESVNKGAKSFSLRIKDLTVADSATYYCKAREARHPWLRQWYDGAGTVLTVN
notes: also called P3A1 phage clone; P3A1 monoclonal phage
[15]
  binding result: no binding

## CQPWNSQYPHTHTFTALRFP (linear ROR1 ECD peptide) [Peptide 3]
[4]
  binding result: no binding (tested: 10 uM)
D3 his myc
  binding result: no binding
P3A1 his myc
  binding result: no binding (tested: about 500 uM as the axis is labelled)
D3-[G4S]5-D3 his myc
  binding result: no binding

B13: E7 (VNAR)
VNAR: TRVDQTPRTATKETGESLTINCVVTGAKYGLAATYWYRKNPGSSNQERISISGRYVESVNKRTMSFSLRIKDLTVADSATYYCKAYPWAMWGQWYDGAGTVLTVN
notes: also called E7 phage clone; E7 monoclonal phage
[15]
  binding result: no binding
